Results taken from the DeepSol protein solubility set.

Test: soluble on expression in E. coli; label from the status in PepcDB or PDB records

| Sequence | soluble on expression in E. coli |
| --- | --- |
| MDLRRFITLKTVVEEGSFLRASQKLCCTQSTVTFHIQQLEQEFSVQLFEKIGRRMCLTREGKKLLPHIYELTRVMDTLREAAKKESDPDGELRVVSGETLLSYRMPQVLQRFRQRAPKVRLSLQSLNCYVIRDALLNDEADVGVFYRVGNDDALNRRELGEQSLVLVASPQIADVDFTEPGRHNACSFIINEPQCVFRQIFESTLRQRRITVENTIELISIESIKRCVAANIGVSYLPRFAVAKELECGELIELPFGEQSQTITAMCAHHAGKAVSPAMHTFIQCVEESFVAG | soluble |
| MTEDERFAWLQLAFTPYIGAESFLLLMRRFGSAQNALSAPAEQVAALIRHKQALEAWRNAEKRALARQAAEAALEWEMRDGCRLMLLQDEDFPEMLTQGLTAPPVLFLRGNVQLLHKPSAAIVGSRHATPQAMRIAKDFGKSLGGKGIPVVSGMASGIDTAAHQGALQAEGGTIAVWGTGIDRIYPPVNKNLAYEIAEKGLIVSEFPIGTRPYAGNFPRRNRLIAALSQVTLVVEAALESGSLITARLAAEMGREVMAVPGSIDNPHSKGCHKLIKDGAKLVECLDDILNECPGLLQNTGASSYSINKGIPEKRITAVQTASDQLSLPEGKMPSEKTENRPVGGSILDRMGFDPVHPDVLAGQLAMPAADLYAALLELELDGSVAAMPGGRYQRIRT | not soluble |
| MRNIMAGFLIFLSSAAYADINLYGPGGPHTALLDAAKLYAEKTGIIVNVHYGPQNKWNEDAKKNADILFGASEQSALAIIRDHKDSFSEKDIQPLYLRKSILLVKKGNPKNIRSIDDLTRPGIGVIVNDGGGTSNTSGTGVWEDIAGRKGNIETVAAIRKNIILYAPNSGTARKALENQPGADVWITWADWAASNPEIGDVVEIAPDYVIWRDMNITVRQDANDETRRFAEWLQTDEAAPAFKKYGWTRKGT | not soluble |
| FTANIKGLTQASRNANDGISIAQTTEGALNEINNNLQRVRELAVQSANSTNSQSDLDSIQAEITQRLNEIDRVSGQTQFNGVKVLAQDNTLTIQVGANDGETIDIDLKQINSQTLGLDTLNVQQKYKVSDTAATVTGYADTTIALDNSTFKASATGLGGTDQKIDGDLKFDDTTGKYYAKVTVTGGTGKDGYYEVSVDKTNGEVTLAGGATSPLTGGLPATATEDVKNVQVANADLTEAKAALTAAGVTGTASVVKMSYTDNNGKTIDGGLAVKVGDDYYSATQNKDGSISINTTKYTADDGTSKTALNKLGGADGKTEVVSIGGKTYAASKAEGHNFKAQPDLAEAAATTTENPLQKIDAALAQVDTLRSDLAAVQNRFNSAITNLGNTVNNLTSAR | soluble |
| MLNRYYRFAVEKDDPSEAPESGDKPDSQPQKKS | not soluble |
| MSLSNISLTTLGGVRENGKNMYIAEIGESIFVLNVGLKYPENEQLGVDVVIPNMDYLFENSDRIAGVFLTHGHADAIGALPYLLAEAKVPVFGSELTIELAKLFVKGNDAVKKFNDFHVIDENTEIDFGGTVVSFFPTTYSVPESLGIVLKTSEGSIVYTGDFKFDQTASESYATDFARLAEIGRDGVLALLSDSANADSNIQVASESEVRDEITQTIADWEGRIIVAAVSSNLSRIQQIFDAADKTGRRIVLTGFDIENIVRTAIRLKKLSLANEILLIKPKDMSRFEDHELIILETGRMGEPINGLRKMSIGRHRYVEIKDGDLVYIATAPSIAKEAFVARVENMIYQAGGVVKLITQSLHVSGHGNVRDLQLMINLLQPKYLFPVQGEYRELDAHAKAAMAVGMLPERIFIPKKGTTMAYENGDFVPAGSVSAGDILIDGNAIGDVGNVVLRDRKVLSEDGIFIVAITVNRREKKIVARARVHTRGFVYLKKSRDILRESSELINQTVEEYLQGDDFDWADLKGKVRDNLTKYLFDQTKRRPAILPVVMEAEGHHHHHH | not soluble |
| MQNEKTLRKIKKLLALSKSSNPHEAAKALEMAQKLMQENRINQVEIEFSQYHGKQKTAKKSARYVHQLVGVITRAFGVDAYMSNFYPDKDEAEEKMHVVFYGAEGRPEIASYCFDVLYRQLQTARKEFLATQSKRLKRSTLISRGDEFCQGWVFGVHENVKEFAMTPEEKGKLERYRYNGFKDLQTAKVRDAGETRDYGLALSQGYKQGSKVTLNHGVNGKETTKLGGDEMKENNGWIACNLGSA | not soluble |
| MIGGGPGGLYFAYLWKKRHPEDQVDLFEQNPADATWGFGVVFSDQALEFLRADDPETVDAIAPHMESWENITLNLQGGSVAIDGVGFSSIGRLELLQFLQQRALDVGVTPRFDTQIHGIDQLNGHDLIVAADGLNSLVRRAYEGDFGTSLSYSSNKFVWYGTSKRFDTLSQTFVKTDRGAFNAHHYRYSPTMSTFLVECDHATWQAYGFAYKDVEQSKGVCEEVFADTLGGHCLVSNKSVWRNFPWVWNEHWSFKNMVLIGDALHSAHFSIGSGTRLAIEDAIALVKALESDAHLNTALLRYQAARKPVVQKLVDAARTSASWYENFAQHMQLDLMDFAYSYITRSGRIDDSRLRAMSPAFMARYEAAKNGGDAASEATALEHHHHHH | soluble |
| MLHTLHRSPWLTDFAALLRLLSEGDELLLLQDGVTAAVDGNRYLESLRNAPIKVYALNEDLIARGLTGQISNDIILIDYTDFVRLTVKHPSQMAW | soluble |
| MGSDKIHHHHHHMTQKTLPPLNWLRAFEVSARYLNFTHAAEELHLTQGAVSQQIRHLESQLGVALFKRLPRGLGLTEEGQSYLPVVQDAISRLAVGTNEIFGQRQRRPLKVRGSLSFLHFWLAPRLADFRRSHPQVDIRYISNLWVKELDAEDDLEIRWGSGQWAGVEAQRLTRDMLVPVCAPALLAGCPLREPRDLARVPLLHVLGYEEGWGYWLERVGADQVDSSSGLQFDTLVSTLRMAELGLGVALARSSLVEDLLQEGRLVAPFAQRIEASESFFLVRGLGEALSPDAQAFSHWLVAMAHR | not soluble |
| MSPLTTFLTDAQQQTLHQLIVSARDSGANEEMVKESMDEYLAQILSPDRLQELKTAHDEFEAQRRGKRAAISASDKPEPKKVFDIIDQFTSDYQKFYEESSAVRNRNNIN | soluble |
| MEKRIVCLAGDGVGPEVMESAKEVLHMVERLYGHHFHLQDEHFGGVAIDLTGQPLPQRTLAACLASDAVLLGAVGGPRWDGAKERPEKGLLALRKGLGVFANVRPVTVESATAHLSPLKKADEIDFVVVRELTGGIYFSYPKERTDEVATDTLTYHRHEIERIVSCAFQLASKRKKKVTSIDKANVLESSKLWRIVTEEVALRYPDVELEHILVDAAAMELIRNPGRFDVIVTENLFGDILSDEASVLAGSLGMLPSASHAEKGPSLYEPIHGSAPDIAGKNKANPIAMMRSVAMMLGQSFGLTREGCAIEEAISAVLKSGKCTADIGGTETTTSFTKAVMQEMEEQALVGRGR | not soluble |
| MSLSINSREVLAEKVKNAVNNQPVTDMHTHLFSPNFGEILLWDIDELLTYHYLVAEVMRWTDVSIEAFWAMSKREQADLIWEELFIKRSPVSEACRGVLTCLQGLGLDPATRDLQVYREYFAKKTSEEQVDTVLQLANVSDVVMTNDPFDDNERISWLEGKQPDSRFHAALRLDPLLNEYEQTKHRLRDWGYKVNDEWNEGSIQEVKRFLTDWIERMDPVYMAVSLPPTFSFPEESNRGRIIRDCLLPVAEKHNIPFAMMIGVKKRVHPALGDAGDFVGKASMDGVEHLLREYPNNKFLVTMLSRENQHELVVLARKFSNLMIFGCWWFMNNPEIINEMTRMRMEMLGTSFIPQHSDARVLEQLIYKWHHSKSIIAEVLIDKYDDILQAGWEVTEEEIKRDVADLFSRNFWRFVGRNDHVTSVKVEQQTEGHHHHHH | soluble |
| MSLHEASIALALIDVAGDVLREHGAARASALTVRVGQWSSVVPEALAAAFPACAEGTPLAGARLSIERVPGVGECPQHGPVELEVWRGLRCPLCGAPTPRLLQGDELELDQLELDQLELENLEGHHHHHH | not soluble |
| MTYRIVLKSDPEKRFKNIRACKDEPMQMVVRNINNGADYVHPEQDVEVFSVKTANNNDLVCVKCTPDSYSSNPAVAEQVVLFCQPNSSDLGGFLQPNSMNFVTYANVFETDLYAFDYSGYGFSSGTQGEKNVYADVRAVYEKILEMRPDKKIVVMGYSIGTTAAVDLAATNPDRLAGVVLIAPFTSGLRLFSSKPDKPDTCWADSFKSFDKINNIDTRVLICHGDVDEVIPLSHGLALYEKLKNPVPPLIVHGANHHTILSGKYIHVFTRIANFLRNETLVSCRSAEVDSSQQQQQLSSKRTENE | not soluble |
| MNALLSNPFKERLRKGEVQIGLWLSSTTAYMAEIAATSGYDWLLIDGEHAPNTIQDLYHQLQAVAPYASQPVIRPVEGSKPLIKQVLDIGAQTLLIPMVDTAEQARQVVSATRYPPYGERGVGASVARAARWGRIENYMAQVNDSLCLLVQVESKTALDNLDEILDVEGIDGVFIGPADLSASLGYPDNAGHPEVQRIIETSIRRIRAAGKAAGFLAVAPDMAQQCLAWGANFVAVGVDTMLYSDALDQRLAMFKSGKNGPRIKGSY | soluble |
| ADRNLRDLLAPWVPDAPSRALREMTLDSRVAAAGDLFVAVVGHQADGRRYIPQAIAQGVAAIIAEAKDEATDGEIREMHGVPVIYLSQLNERLSALAGRFYHEPSDNLRLVGVTGTNGKTTTTQLLAQWSQLLGEISAVMGTVGNGLLGKVIPTENTTGSAVDVQHELAGLVDQGATFCAMEVSSHGLVQHRVAALKFAASVFTNLSRDHLDYHGDMEHYEAAKWLLYSEHHCGQAIINADDEVGRRWLAKLPDAVAVSMEDHINPNCHGRWLKATEVNYHDSGATIRFSSSWGDGEIESHLMGAFNVSNLLLALATLLALGYPLADLLKTAARLQPVCGRMEVFTAPGKPTVVVDYAHTPDALEKALQAARLHCAGKLWCVFGCGGDRDKGKRPLMGAIAEEFADVAVVTDDNPRTEEPRAIINDILAGMLDAGHAKVMEGRAEAVTCAVMQAKENDVVLVAGKGHEDYQIVGNQRLDYSDRVTVARLLGVIARSHH | soluble |
| MSLAASKGNLLSPDRILTVAHRGASGYVPEHTILSYETAQKMKADFIELDLQMTKDGKLIVMHDEKLDRTTNGMGWVKDHTLADIKKLDAGSWFNEAYPEKAKPQYVGLKVPTLEEVLDRFGKHANYYIETKSPDTYPGMEEKLIASLQKHKLLGKHSKPGQVIIQSFSKESLVKVHQLQPNLPTVQLLEAKQMASMTDAALEEIKTYAVGAGPDYKALNQENVRMIRSHGLLLHPYTVNNEADMHRLLDWGVTGVFTNYPDLFHKVKKGYEGHHHHHH | soluble |
| MHTLLLLAALSNQITFTTTQQGDIYTVIPQVTLNEPCVCQVQILSVRDGVGGQSHTQQKQTLSLPANQPIELSRLSVNISSEDSVKIIVTVSDGQSLHLSQQWPPSAQ | not soluble |
| MKRRDILKGGLAAGALALLPRGHTQGALQNQPSLGRRYRNLIVFVYDGFSWEDYAIAQAYARRRQGRVLALERLLARYPNGLINTYSLTSYVTESSAAGNAFSCGVKTVNGGLAIHADGTPLKPFFAAAKEAGKAVGLVTTTTVTHATPASFVISNPDRNAEERIAEQYLEFGAEVYLGGGDRFFNPARRKDGKDLYAAFAAKGYGVVRTPEELVRSNATRLLGVFADGHVPYEIDRRFQGLGVPSLKEMVQAALPRLAAHRGGFVLQVEAGRIDHANHLNDAGATLWDVLAADEVLELLTAFVDRNPDTLLIVVSDHATGVGGLYGAGRSYLESSQGVDLLEPQRASFEHMLRVLGQAPEASQVKEAFRAMKGVDLEDAEAERVVRAIREKVYWPEGVRQGVQPANTMAWAMVQRDAQKPDRPNIGWSSGQHTASPVMLLLYGQGLRFVNLGLVDNTHVFRLMGEALGLRYQNPVMSEEEALEILKARPQGMRHPEDVWA | soluble |
